Values belong to the binder of their own block, whether it stands above or below them.
How the values were obtained:
Assay in all cases: holdup assay
Parameters in all cases: key: below the threshold = too weak to quantify, mostly under pKd 3.1 to 4
ARHGAP21, Q5T5U3 = molecular target: T1, ARHGAP21, Q5T5U3
T1 sequence (Q5T5U3 45-169, limits assumed, looked up): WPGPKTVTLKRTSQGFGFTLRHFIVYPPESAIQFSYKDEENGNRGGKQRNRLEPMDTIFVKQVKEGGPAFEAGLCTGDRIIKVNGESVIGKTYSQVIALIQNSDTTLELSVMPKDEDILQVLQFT

GRIP2_6, Q9C0E4 = molecular target: GRIP2_6, Q9C0E4
Sequence of GRIP2_6, Q9C0E4 (Q9C0E4 648-740): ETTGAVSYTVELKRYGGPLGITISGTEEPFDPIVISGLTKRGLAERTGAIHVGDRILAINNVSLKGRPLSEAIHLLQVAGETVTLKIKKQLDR

GIPC2, Q8TF65 = molecular target: GIPC2, Q8TF65
Sequence of GIPC2, Q8TF65 (Q8TF65 112-203): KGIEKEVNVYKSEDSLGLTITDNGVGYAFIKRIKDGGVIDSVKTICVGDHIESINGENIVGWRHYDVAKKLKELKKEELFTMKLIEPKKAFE

ARHGEF12, Q9NZN5-2 = molecular target: ARHGEF12, Q9NZN5-2
Sequence of ARHGEF12, Q9NZN5-2 (Q9NZN5 other isoform, or with tags, fused parts or gaps): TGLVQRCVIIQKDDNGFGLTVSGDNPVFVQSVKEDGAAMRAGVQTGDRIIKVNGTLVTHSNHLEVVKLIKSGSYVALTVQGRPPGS

MAGI2_2, Q86UL8 = molecular target: MAGI2_2, Q86UL8
Sequence of MAGI2_2, Q86UL8 (Q86UL8 410-522): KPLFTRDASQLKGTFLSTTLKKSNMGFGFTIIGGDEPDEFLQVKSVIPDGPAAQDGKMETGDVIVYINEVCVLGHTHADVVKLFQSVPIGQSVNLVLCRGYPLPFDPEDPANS

LRRC7, Q96NW7 = molecular target: T2, LRRC7, Q96NW7
T2 sequence (Q96NW7 1440-1537, limits assumed, looked up): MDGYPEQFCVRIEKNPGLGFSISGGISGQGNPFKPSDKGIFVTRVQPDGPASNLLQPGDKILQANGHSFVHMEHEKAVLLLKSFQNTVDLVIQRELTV

TX1BP3, O14907 = molecular target: T3, TX1BP3, O14907
T3 sequence (O14907 10-122, limits assumed, looked up): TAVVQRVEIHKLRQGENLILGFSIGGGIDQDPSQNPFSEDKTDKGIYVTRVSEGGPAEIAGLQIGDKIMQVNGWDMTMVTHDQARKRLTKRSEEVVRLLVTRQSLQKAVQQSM

TJP3_3, O95049 = molecular target: T4, TJP3_3, O95049
T4 sequence (O95049 375-456, limits assumed, looked up): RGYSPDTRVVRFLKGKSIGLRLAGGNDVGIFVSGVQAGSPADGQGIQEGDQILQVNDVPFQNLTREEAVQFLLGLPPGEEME

MAGI2_5, Q86UL8 = molecular target: MAGI2_5, Q86UL8
Sequence of MAGI2_5, Q86UL8 (Q86UL8 915-1017): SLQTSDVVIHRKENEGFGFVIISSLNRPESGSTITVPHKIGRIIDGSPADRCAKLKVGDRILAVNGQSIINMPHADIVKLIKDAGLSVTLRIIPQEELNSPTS

GORASP1, Q9BQQ3 = molecular target: GORASP1, Q9BQQ3
Sequence of GORASP1, Q9BQQ3 (Q9BQQ3 1-208): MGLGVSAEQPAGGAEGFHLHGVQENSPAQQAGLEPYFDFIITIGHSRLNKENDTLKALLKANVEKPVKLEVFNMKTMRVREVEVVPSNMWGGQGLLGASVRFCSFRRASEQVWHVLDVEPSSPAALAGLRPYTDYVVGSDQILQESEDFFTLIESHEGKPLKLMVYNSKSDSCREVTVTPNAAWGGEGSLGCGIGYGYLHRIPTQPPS

HTRA3, P83110 = molecular target: T5, HTRA3, P83110
T5 sequence (P83110 354-453, limits assumed, looked up): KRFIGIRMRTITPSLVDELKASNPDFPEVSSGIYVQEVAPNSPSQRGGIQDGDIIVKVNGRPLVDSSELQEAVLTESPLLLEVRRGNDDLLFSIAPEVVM

DLG1_2, Q12959 = molecular target: DLG1_2, Q12959
Sequence of DLG1_2, Q12959 (Q12959 314-412): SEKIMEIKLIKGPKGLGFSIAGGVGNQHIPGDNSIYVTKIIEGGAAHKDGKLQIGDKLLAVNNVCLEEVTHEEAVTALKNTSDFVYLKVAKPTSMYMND

GRIP2_3, Q9C0E4 = molecular target: GRIP2_3, Q9C0E4
Sequence of GRIP2_3, Q9C0E4 (Q9C0E4 238-339): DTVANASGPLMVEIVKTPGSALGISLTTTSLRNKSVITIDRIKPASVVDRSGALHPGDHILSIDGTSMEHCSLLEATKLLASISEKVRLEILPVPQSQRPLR

ARHGEF11, O15085 = molecular target: T6, ARHGEF11, O15085
T6 sequence (O15085 42-136, limits assumed, looked up): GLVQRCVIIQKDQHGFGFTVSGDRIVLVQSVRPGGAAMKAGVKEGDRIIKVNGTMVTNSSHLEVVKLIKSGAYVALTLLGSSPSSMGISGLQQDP

PCLO, Q9Y6V0 = molecular target: T7, PCLO, Q9Y6V0
T7 sequence (Q9Y6V0 4491-4600, limits assumed, looked up): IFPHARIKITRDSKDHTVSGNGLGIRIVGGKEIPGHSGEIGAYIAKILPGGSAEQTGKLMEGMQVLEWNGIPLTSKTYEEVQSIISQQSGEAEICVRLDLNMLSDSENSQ

SYNJ2BP, P57105 = molecular target: T8, SYNJ2BP, P57105
T8 sequence (P57105 8-110, limits assumed, looked up): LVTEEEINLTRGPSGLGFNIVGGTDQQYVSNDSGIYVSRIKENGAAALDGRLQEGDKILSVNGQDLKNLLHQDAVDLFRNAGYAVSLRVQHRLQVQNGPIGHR

APBA2_2, Q99767 = molecular target: T9, APBA2_2, Q99767
T9 sequence (Q99767 654-744, limits assumed, looked up): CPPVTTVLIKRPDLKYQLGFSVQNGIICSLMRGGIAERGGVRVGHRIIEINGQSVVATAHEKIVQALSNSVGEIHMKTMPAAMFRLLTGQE

DLG3_2, Q92796 = molecular target: T10, DLG3_2, Q92796
T10 sequence (Q92796 221-321, limits assumed, looked up): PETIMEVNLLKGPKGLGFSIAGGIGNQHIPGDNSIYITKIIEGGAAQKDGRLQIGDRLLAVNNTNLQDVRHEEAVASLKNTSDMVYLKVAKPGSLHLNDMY

DFNB31_2, Q9P202 = molecular target: T11, DFNB31_2, Q9P202
T11 sequence (Q9P202 274-371, limits assumed, looked up): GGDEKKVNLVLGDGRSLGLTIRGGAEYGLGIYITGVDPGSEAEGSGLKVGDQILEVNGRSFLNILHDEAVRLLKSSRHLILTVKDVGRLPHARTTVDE

GRIP2_7, Q9C0E4 = molecular target: GRIP2_7, Q9C0E4
Sequence of GRIP2_7, Q9C0E4 (Q9C0E4 934-1023): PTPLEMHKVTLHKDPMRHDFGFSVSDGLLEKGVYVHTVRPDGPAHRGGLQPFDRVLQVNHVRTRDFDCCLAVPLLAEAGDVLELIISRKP

DFNB31_1, Q9P202 = molecular target: T12, DFNB31_1, Q9P202
T12 sequence (Q9P202 135-233, limits assumed, looked up): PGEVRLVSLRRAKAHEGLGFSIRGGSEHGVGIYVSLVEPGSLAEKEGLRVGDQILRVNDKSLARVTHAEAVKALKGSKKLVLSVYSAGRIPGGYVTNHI

DFNB31_3, Q9P202 = molecular target: T13, DFNB31_3, Q9P202
T13 sequence (Q9P202 811-907, limits assumed, looked up): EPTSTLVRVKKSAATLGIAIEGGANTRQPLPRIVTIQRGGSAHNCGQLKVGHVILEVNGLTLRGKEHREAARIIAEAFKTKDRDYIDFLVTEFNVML

AHNAK1, Q09666 = molecular target: AHNAK1, Q09666
Sequence of AHNAK1, Q09666 (Q09666 4-100): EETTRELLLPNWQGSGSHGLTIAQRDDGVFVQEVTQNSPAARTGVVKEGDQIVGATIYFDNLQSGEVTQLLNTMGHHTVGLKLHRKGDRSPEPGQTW

[1] = plain residues with an end cap or a label only (N-terminal biotin on a linker: ado-ado)
[2] = plain residues with an end cap or a label only (N-terminal biotin on a linker: ttds)

pKd (ARHGAP21, Q5T5U3; [1]): below the threshold | pKd (GRIP2_6, Q9C0E4; [1]): below the threshold | pKd (GIPC2, Q8TF65; [1]): 3.6 | pKd (ARHGEF12, Q9NZN5-2; [1]): 3.49 | pKd (MAGI2_2, Q86UL8; [1]): 3.74 | pKd (LRRC7, Q96NW7; [1]): 3.93 | pKd (TX1BP3, O14907; [1]): 4.3 | pKd (TJP3_3, O95049; [1]): below the threshold | pKd (MAGI2_5, Q86UL8; [1]): 4.82 | pKd (GORASP1, Q9BQQ3; [1]): below the threshold | pKd (HTRA3, P83110; [1]): below the threshold | pKd (DLG1_2, Q12959; [1]): 5.11 | pKd (GRIP2_3, Q9C0E4; [1]): below the threshold | pKd (ARHGEF11, O15085; [1]): 4.55 | pKd (PCLO, Q9Y6V0; [1]): below the threshold | pKd (SYNJ2BP, P57105; [1]): 5.25 | pKd (APBA2_2, Q99767; [1]): below the threshold | pKd (DLG3_2, Q92796; [1]): 4.8 | pKd (DFNB31_2, Q9P202; [1]): below the threshold | pKd (GRIP2_7, Q9C0E4; [1]): below the threshold | pKd (DFNB31_1, Q9P202; [1]): 4.79 | pKd (DFNB31_3, Q9P202; [1]): 3.92 | pKd (AHNAK1, Q09666; [1]): below the threshold
B1: DGKI, O75912 (peptide)
chain: IGHEDLETAV

pKd (ARHGAP21, Q5T5U3; [2]): 3.56 | pKd (GRIP2_6, Q9C0E4; [2]): below the threshold | pKd (GIPC2, Q8TF65; [2]): below the threshold | pKd (ARHGEF12, Q9NZN5-2; [2]): below the threshold | pKd (MAGI2_2, Q86UL8; [2]): below the threshold | pKd (LRRC7, Q96NW7; [2]): below the threshold | pKd (TX1BP3, O14907; [2]): below the threshold | pKd (TJP3_3, O95049; [2]): 3.5 | pKd (MAGI2_5, Q86UL8; [2]): below the threshold | pKd (GORASP1, Q9BQQ3; [2]): below the threshold | pKd (HTRA3, P83110; [2]): below the threshold | pKd (DLG1_2, Q12959; [2]): below the threshold | pKd (GRIP2_3, Q9C0E4; [2]): below the threshold | pKd (ARHGEF11, O15085; [2]): below the threshold | pKd (PCLO, Q9Y6V0; [2]): below the threshold | pKd (SYNJ2BP, P57105; [2]): below the threshold | pKd (APBA2_2, Q99767; [2]): below the threshold | pKd (DLG3_2, Q92796; [2]): below the threshold | pKd (DFNB31_2, Q9P202; [2]): below the threshold | pKd (GRIP2_7, Q9C0E4; [2]): below the threshold | pKd (DFNB31_1, Q9P202; [2]): below the threshold | pKd (DFNB31_3, Q9P202; [2]): below the threshold | pKd (AHNAK1, Q09666; [2]): below the threshold
B2: PODXL, O00592 (peptide)
chain: DLDEEEDTHL

pKd (ARHGAP21, Q5T5U3; [1]): 4.08 | pKd (GRIP2_6, Q9C0E4; [1]): below the threshold | pKd (GIPC2, Q8TF65; [1]): below the threshold | pKd (ARHGEF12, Q9NZN5-2; [1]): 3.52 | pKd (MAGI2_2, Q86UL8; [1]): below the threshold | pKd (LRRC7, Q96NW7; [1]): below the threshold | pKd (TX1BP3, O14907; [1]): below the threshold | pKd (TJP3_3, O95049; [1]): below the threshold | pKd (MAGI2_5, Q86UL8; [1]): below the threshold | pKd (GORASP1, Q9BQQ3; [1]): 3.52 | pKd (HTRA3, P83110; [1]): 4.01 | pKd (DLG1_2, Q12959; [1]): below the threshold | pKd (GRIP2_3, Q9C0E4; [1]): below the threshold | pKd (ARHGEF11, O15085; [1]): 3.6 | pKd (PCLO, Q9Y6V0; [1]): below the threshold | pKd (SYNJ2BP, P57105; [1]): below the threshold | pKd (APBA2_2, Q99767; [1]): below the threshold | pKd (DLG3_2, Q92796; [1]): below the threshold | pKd (DFNB31_2, Q9P202; [1]): below the threshold | pKd (GRIP2_7, Q9C0E4; [1]): below the threshold | pKd (DFNB31_1, Q9P202; [1]): 3.57 | pKd (DFNB31_3, Q9P202; [1]): below the threshold | pKd (AHNAK1, Q09666; [1]): below the threshold
B3: U2AF2, P26368 (peptide)
chain: PDSYHRRDFW

— publication PMC9482650, “Quantitative fragmentomics allow affinity mapping of interactomes” (Nature Communications, 2022)
